First the molecules themselves.
T1: PUF4 RNA-binding domain (Saccharomyces cerevisiae, UniProt P25339 537-888)
T1 sequence: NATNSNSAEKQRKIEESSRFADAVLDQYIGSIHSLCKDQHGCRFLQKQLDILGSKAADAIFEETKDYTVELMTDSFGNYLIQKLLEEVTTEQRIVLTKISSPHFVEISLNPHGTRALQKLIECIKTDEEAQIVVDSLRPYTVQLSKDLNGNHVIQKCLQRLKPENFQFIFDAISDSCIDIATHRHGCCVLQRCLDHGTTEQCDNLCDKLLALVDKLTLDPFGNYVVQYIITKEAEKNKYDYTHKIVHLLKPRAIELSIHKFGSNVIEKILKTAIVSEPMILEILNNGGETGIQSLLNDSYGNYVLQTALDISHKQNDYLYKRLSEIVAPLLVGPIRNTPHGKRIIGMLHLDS

The target in the data set is T1, PUF4 RNA-binding domain. The data set is described as follows: Mg; RNA-MaP; 20 mM Na-HEPES pH 7.4, 30 mM KOAc, 0.75 mM MgCl2, 0.1% Tween-20, 5% glycerol, 0.1 mg/mL BSA, 2 mM DTT; 25 C; 0.0125-409.6 nM protein. The note with it: tags: N-His6-TEV cleaved; C-SNAP kept, Cy3B-labelled; label: tethered on chip by stalled RNA polymerase.
The Kd is the free concentration of one partner at which half of the binding sites on the other are occupied at equilibrium, for simple one-to-one binding. A high value points to lower affinity. Turning to ACAAACUUUAUAUAUAUAACAAAC (ssRNA) [Id_ii_S3_P3E.3_K3.2_C3.2_[C-2T]_H3.2_A3.1_F3.1_T3.2], binding was characterised by a dissociation constant (Kd) of 0.595 µM. That is a sub-micromolar value.

Take ACAAACAUUAUAUAUAAUACAAAC (ssRNA) [Id_ii_S3_P3E.3_K3.2_C3.2_[C-2A]_H3.2_A3.1_F3.1_T3.2_[T9A]_[A10T]]: binding was characterised by a dissociation constant (Kd) of 0.381 µM.

The molecule ACAAACGAUAUAUAUAAAACAAAC (ssRNA) [Id_ii_S3_P3E.3_K3.2_C3.2_[C-2G]_[T-1A]_H3.2_A3.1_F3.1_T3.2_[T9A]] registered a Kd of 1.08 µM.

UCUCUUUGUAUUGUCAUCUCUU (ssRNA) [Ib_S1_P5E.1_K5.1_C5.1_H5.1_A5.1_[A7G]_F5.1_[T9C]_T5.1] gave a Kd of 0.14 µM.

ACAAACAGUAUAUAUAACACAAAC (ssRNA) [Id_ii_S3_P3E.3_K3.2_C3.2_[C-2A]_[T-1G]_H3.2_A3.1_F3.1_T3.2_[T9A]_[A10C]] displayed a Kd of 0.522 µM.

ACAAACGAUAUAUAUACAACAAAC (ssRNA) [Id_ii_S3_P3E.3_K3.2_C3.2_[C-2G]_[T-1A]_H3.2_A3.1_F3.1_T3.2_[T9C]] came in with a Kd of 0.839 µM.

For ACAAACGAUAUAUAUAGGACAAAC (ssRNA) [Id_ii_S3_P3E.3_K3.2_C3.2_[C-2G]_[T-1A]_H3.2_A3.1_F3.1_T3.2_[T9G]_[A10G]], binding was characterised by a dissociation constant (Kd) of 0.535 µM.

Molecule ACAAACGGUAUAUAUAUGACAAAC (ssRNA) [Id_ii_S3_P3E.3_K3.2_C3.2_[C-2G]_[T-1G]_H3.2_A3.1_F3.1_T3.2_[A10G]] registered a Kd of 0.552 µM.

As to ACAAACGCUAUAUAUAACACAAAC (ssRNA) [Id_ii_S3_P3E.3_K3.2_C3.2_[C-2G]_[T-1C]_H3.2_A3.1_F3.1_T3.2_[T9A]_[A10C]], binding was characterised by a dissociation constant (Kd) of 1.13 µM.

For ACAAACGAUAUAUAUAACACAAAC (ssRNA) [Id_ii_S3_P3E.3_K3.2_C3.2_[C-2G]_[T-1A]_H3.2_A3.1_F3.1_T3.2_[T9A]_[A10C]], the Kd came to 0.969 µM.

In the case of ACAAACACUAUAUAUAAGACAAAC (ssRNA) [Id_ii_S3_P3E.3_K3.2_C3.2_[C-2A]_[T-1C]_H3.2_A3.1_F3.1_T3.2_[T9A]_[A10G]], the Kd was found to be 0.45 µM.

In turn, ACAAACACUAUAUAUACGACAAAC (ssRNA) [Id_ii_S3_P3E.3_K3.2_C3.2_[C-2A]_[T-1C]_H3.2_A3.1_F3.1_T3.2_[T9C]_[A10G]] displayed a Kd of 1.04 µM.

For the molecule ACAAACUAUAUAUAUAACACAAAC (ssRNA) [Id_ii_S3_P3E.3_K3.2_C3.2_[C-2T]_[T-1A]_H3.2_A3.1_F3.1_T3.2_[T9A]_[A10C]], the Kd came out at 0.376 µM.

In the case of ACAAACAUUAUAUAUAGUACAAAC (ssRNA) [Id_ii_S3_P3E.3_K3.2_C3.2_[C-2A]_H3.2_A3.1_F3.1_T3.2_[T9G]_[A10T]], the Kd was found to be 0.0675 µM. This Kd is about 5.6-fold lower than that of the molecule before.

The molecule ACAAACAUUAUAUAUAUUACAAAC (ssRNA) [Id_ii_S3_P3E.3_K3.2_C3.2_[C-2A]_H3.2_A3.1_F3.1_T3.2_[A10T]] showed a Kd of 0.0332 µM. Compared with the last molecule, the Kd is about 2-fold lower.

With ACAAACAAUAUAUAUAUUACAAAC (ssRNA) [Id_ii_S3_P3E.3_K3.2_C3.2_[C-2A]_[T-1A]_H3.2_A3.1_F3.1_T3.2_[A10T]], binding was put at a Kd of 0.094 µM. This Kd is about 2.8-fold higher than that of the molecule before.

The molecule ACAAACUUUAUAUAUAUUACAAAC (ssRNA) [Id_ii_S3_P3E.3_K3.2_C3.2_[C-2T]_H3.2_A3.1_F3.1_T3.2_[A10T]] returned a Kd of 0.0345 µM.

Molecule ACAAACACUAUAUAUAUGACAAAC (ssRNA) [Id_ii_S3_P3E.3_K3.2_C3.2_[C-2A]_[T-1C]_H3.2_A3.1_F3.1_T3.2_[A10G]] came in with an equilibrium dissociation constant (Kd) of 0.572 µM.

The molecule ACAAACACUAUAUAUACCACAAAC (ssRNA) [Id_ii_S3_P3E.3_K3.2_C3.2_[C-2A]_[T-1C]_H3.2_A3.1_F3.1_T3.2_[T9C]_[A10C]] showed a Kd of 0.816 µM.

In turn, ACAAACAAUAUAUAUAAGACAAAC (ssRNA) [Id_ii_S3_P3E.3_K3.2_C3.2_[C-2A]_[T-1A]_H3.2_A3.1_F3.1_T3.2_[T9A]_[A10G]] yielded a Kd of 1.09 µM.

In the case of ACAAACGCUAUAUAUAUUACAAAC (ssRNA) [Id_ii_S3_P3E.3_K3.2_C3.2_[C-2G]_[T-1C]_H3.2_A3.1_F3.1_T3.2_[A10T]], binding was characterised by a dissociation constant (Kd) of 0.0452 µM. Compared with the last molecule, the Kd is about 24-fold lower.

Molecule ACAAACGAUAUAUAUAGUACAAAC (ssRNA) [Id_ii_S3_P3E.3_K3.2_C3.2_[C-2G]_[T-1A]_H3.2_A3.1_F3.1_T3.2_[T9G]_[A10T]] had a Kd of 0.0623 µM.

Molecule ACAAACACUAUAUAUACUACAAAC (ssRNA) [Id_ii_S3_P3E.3_K3.2_C3.2_[C-2A]_[T-1C]_H3.2_A3.1_F3.1_T3.2_[T9C]_[A10T]] gave a Kd of 0.0438 µM. The Kd values of the last two molecules are within 1.5-fold of each other.

Take ACAAACUCUAUAUAUAAUACAAAC (ssRNA) [Id_ii_S3_P3E.3_K3.2_C3.2_[C-2T]_[T-1C]_H3.2_A3.1_F3.1_T3.2_[T9A]_[A10T]]: the Kd is 0.072 µM.

Regarding ACAAACGUUAUAUAUAAUACAAAC (ssRNA) [Id_ii_S3_P3E.3_K3.2_C3.2_[C-2G]_H3.2_A3.1_F3.1_T3.2_[T9A]_[A10T]], binding was put at a Kd of 0.66 µM.

ACAAACACUAUAUAUAUCACAAAC (ssRNA) [Id_ii_S3_P3E.3_K3.2_C3.2_[C-2A]_[T-1C]_H3.2_A3.1_F3.1_T3.2_[A10C]]: the Kd was found to be 0.541 µM.

UCUCUUUGUAUUUUGAUCUCUU (ssRNA) [Ib_S1_P5E.1_K5.1_C5.1_H5.1_A5.1_[A7T]_F5.1_[T9G]_T5.1] came in with a Kd of 0.0171 µM.

For ACAAACGCUAUAUAUAUCACAAAC (ssRNA) [Id_ii_S3_P3E.3_K3.2_C3.2_[C-2G]_[T-1C]_H3.2_A3.1_F3.1_T3.2_[A10C]], binding was characterised by a dissociation constant (Kd) of 0.836 µM. Against the preceding molecule, the Kd is about 49-fold higher.

The molecule ACAAACACUAUAUAUAAAACAAAC (ssRNA) [Id_ii_S3_P3E.3_K3.2_C3.2_[C-2A]_[T-1C]_H3.2_A3.1_F3.1_T3.2_[T9A]] registered a Kd of 1.08 µM.

For the origin of these results see paper PMC9352680, “A comprehensive thermodynamic model for RNA binding by the Saccharomyces cerevisiae Pumilio protein PUF4”.
